Measured values as given in the DeepSol protein solubility set.

experiment: soluble on expression in E. coli; label from the status in PepcDB or PDB records

Row | Sequence | soluble on expression in E. coli
1 | MGSDKIHHHHHHMGSSGMGVDANGKPIKRQPTTNNNNKKAGNNSNNQKKGNNQNNKNNKNQNGGNRNQNRQHHQPPMMQMVPPFGPMGPGGPGGPGFMGPPNGNMNFFNGQNRRNGSGKDTMDHRLTMWDKELLEIT | not soluble
2 | MGSDKIHHHHHHMGTCLLSGLSEPSGGISEHLRGQTDQLGFRQFPHGLSGITQPCRGHRAPLAGLHPRYLRFSQSTPAHFVILTTESMTPTPEIPEPHYIGHRQRLKKKFFKCGLQALHDYEAVELLLSYAIPRKDIKSLSKDLLERFGSLKGIMDAELEELTAVRGISAHAAGLVRMVKEMSALYLQEKAREKPQISCTGELLDFCKTALGGLKDENFCVLYLDTQNRIIAFETIQKGIVNQAVVYPRQVIERALSHKSSALILVHNHPSGFVKPSDADIRLTRTITDTAKLLDIMVHDHLIIGENRFFSFREEGIMPL | not soluble
3 | MGSDKIHHHHHHMGVQSAVRVHRAISEIGQDAWDACAASTGDPFVSYDFLSILEESGCVAARTGWAPQHLTVLDEADQVAGVMPLYLKSHSQGEYVFDHSWADAYERAGGRYYPKLQCSSPFSPVTGSRLIVRPDIDAAEGRSALMGGALTLCERMGASSLHVTFPVEDQWRWMGERGMLLRQDQQYHWENRGYETFDDFLGALSANRRKTIRRERRDAQEGLEIVALTGADLTEDHWDAFFAFYMDTGGRKWGRPYLNRPFFSLLGQRMADKVLLILARRPGGPFIAGALNLLGRDCLYGRHWGCVEDAPFLHFELCYYQAIEHAIRLGLPRVEAGAQGQHKIARGYLPSAVYSAHWIADPMLREPVARYLERERAAVESDMEMLTEEYSPFREER | not soluble
4 | MGSDKIHHHHHHMHGKLVEVADGVYAYIQGRGEWFVNNAGLIVGEEFSVVVDSVCNEQRAKEMISQFREVTAKDFRILINTHGHPDHVWTNHLFDAVAVAHEMGRQETLMAFVEIYQSLFPDLDFSGAKITPQNITFESRMKLYNDAEMQIIHPGVAHTRGDCYIYIPQKKVVFCGDLLFAKPCTPLAVGGSVRGSVNALRELLNLDAKIYVPGHGGLAGEEHLVEAIEYFEFVWEEAKKRHERGMGWYEAAMDIDLGEYAKWSEAERIVGNVARAYAEIEGRELEFAELVEVARKMLEYGGGRK | not soluble
5 | MGSDKIHHHHHHMHGREAEDGVRSNPTGRQLRFGAELRKLREQAGLSATDAGQLLGIKQTQVSNMEAGRVGVSADRVRTLACHYECSDKALVEAIAAMTGDRTRGWWEEYREILPVGLLDLAELEHHATRLRTAVTVHIPGLFQTTEYAREIFRQAVPELPQPDVEHRVSFRIKRQAILFRDPPTPHQIIVHEAALRMRFGGSDVTRDQLKYLTAMNEREHISVQVIPFDTGVLPGSGQSIYYAEGPVPQLDTVNLDQSHGPVFLDAGAQLRKYRGLLDRMESAALSPEDSQKFIHTILKAL | not soluble
6 | MGSDKIHHHHHHMHHESPIRRRKTRQIHVGKVAIGGDAPISVQSMTNTETRDIAATVAQIRRLEAVGADIVRISVPSMDAAEAFKTIRAQVETPLVADIHFDHRIALQVMEDGVDGLRINPGNIGSLDKTRLVVEMAKDKGIPIRIGVNAGSLEKDIQEKYGEPTPEALVESALRHVSILDELNFHDVKISVKASDIFLAVSAYRLLSEKVDYPLHLGITEAGGLRSGTVKSAIGLGLLLRDGIGDTIRVSLAADPVEEIRVGFDILKSLHLRQKGINLIACPSCSRQEFDVITTINALEARLEDILEPMDVSVIGCVVNGIGEAKEADIGLAGGDKRSILYYRGKQVDRVENNDIVDVLEKRIRAEIAERQATRHEG | not soluble
7 | MGSDKIHHHHHHMHHNTWKGIILQKQGLLKPQSVQQICQNLNGLQAQFQPYVHIGFRNRMTNEAFQNQDWQASLTRQWSLRRTVHAYLKSEIPLYIHEGRMASVDYLETVSWDGALPQVKKKFYQVILEALETGPMTREELKILCRAENIGVEEEKQVFNAWGGLLRYMVERGEIYQEYGVKRFHRLRDFQPLPKKEAELEIARRYFTGFGPVSLADARYYFKENKSTVLKWMEQLDLKTVEVAGEERFYLGELEEAELPDCLFVAGFDQLLLGYEKKANPFFNPKYIRNIYTLTGIVKPVVFYKGRFVATWKRDKGTILLDIFEDITQQEEKELEHYRQMFEKIL | not soluble
8 | MGSDKIHHHHHHMHKHADFFSYLSDHFQHTYWVPGNHEWYNSDMADRSGMLHEKIKDNVSLVNNAAVEQDGVQLIFSTLWSQISPAFAFQISQGMSDFHVIKYKGKPFSVEQFNRQHEESVSFIQKALQQKYAATTVVVSHHIPTFQHYPQQYKGSVLSEAFATELYDLIEAASPDYWIYGHHHSNVPDFTIGNTQLLTNQLGYVKCGEHAGFDRGKCLFRRGGH | not soluble
9 | MGSDKIHHHHHHMHLTKTWLAQLPLTDIQQVQPVSGGDINAAFQIITRHHQYFLKVQPHNDVTFFDHEVAGLRLLGAVTKTPRVIASGTIATDGYLLLDWLATGTGSQSALGAAVAKVHHQHHAQFGLDHDFTAGKLPKINHWQTDWATFYTQQRLDVLVNLAKEHHLWSETREMHYHRLRQQLLQDSHMHTVKPSLLHGDLWSGNYLFDTTGTPVLIDPDVFYGDREMDLAMTTIFGGFDTDFYQAYQAAYPVAPGMQDRLPSYQLYYLLAHLNLFGETYGPAVDRILMQY | not soluble
10 | MGSDKIHHHHHHMHVGRENSSFQICNSSQDIRKSDILDAMSIRFRQLQAFHATFETGTVTGAATLLGISQPGISNLLAQLERETRFKLFERVKGRLIPTPEAGVLYQEVDTVVRGLDHVGQAVTDLQNKQGGQLQVASQHAMSFGFMPKLIAQFAKTRPDMSISFQSQYSSKVQEWVMSGLFEIGVCETPQLYDALDTHPFQVEMQLTLHPDNPLARHDILTPELCGAEPFIVMGPDHMTHRRTREAFHTAGVPWNTRVHTHLFKNMLSFVQEDMGVAILDPFLLDHDESGSFVTRPFAPAIHMDMMVITSATRPLSTLALDFLDLLLTGIAQSDRRRVSPSNAAPGRPPLPMAAR | not soluble
11 | MGSDKIHHHHHHMHYNDQGADFKYLIVNERDKRFGLSVTTVGFQAIRAGSVYPPRNHPDAYYFTAQKGRVLHEYQLVYITKGRGTFASDTTPSVDISKGQILFLFPGQWHTYAPLQKTGWNEYYIGFEGPIIDNLVKNSFISKESQILDIGINEELASLFARALEVAEADKTAAQQYLSGIVLHIMGAVLAISQNKRYEVDNAAQKIESAKIIMHENVYKDIDPEELAMKLGISYSWFRKVFKEYTGYAPAKYFQELKLRKAKQLLIESSMSVKEICYELNYTSTEHFFSVFKKRTNFTPTEYRNFGRGGKEKENENE | not soluble
12 | MGSDKIHHHHHHMIATTIAMDFCQTVTPSEIATVIDSYARGWFLMADEDSSDLGWYRSRDRCLIPLDNRFRYPRSLRRVLNQQRFEFAISRDFLGTIAGCADRPSTWISDELAEIYQQLQRYGWALSWEAWQGDRLVGGILGVAIGSLFIGESMFYHEPEASKAALVTLVQALQQGGWQVFDVQLTNPHLERFGSFCVSDRQYSAQIQTAIARPAKLVTPTGDRFASQPHSSAASDHG | not soluble
13 | MGSDKIHHHHHHMIEDNMKLKTGIPALDRILGGGFEKGCNIALVGGMDNDHILLTHQLTNAFLSSGKKVLLVELRQDPASLIKWLSQYNINYEEYLEDGDLKILDGFSNLYSPASISGPDVLPNPLDLGITTAIIRDNVSKEKYDILVFDDITSLYALQTDYKAYVRVIVRLTNSIRKLGASSLVAINSDVLSIQDLSMILMPFEYLIEIREGMIRFKRSFSFINVPGVPYVKTNKGIIPIEDVLKDAVSIRDSLVLTSDGVLKLGEGRVQLIGETSERSLIEFVYRFLGPEKGREFLYGWGRHEVEHLEIPKIESVEEIKEILEEAFEVTRSTGGGILRIVEATKDIIIVEGKNLFPHIRNFPYPAHVHYAGYMAKLLEKATGERWEGEEIKCESQTNDKCIFILRRV | not soluble
14 | MGSDKIHHHHHHMIEELAREIVKRFPRNHKETDPFRVLISTVLSQRTRDENTEKASKKLFEVYRTPQELAKAKPEDLYDLIKESGMYRQKAERIVEISRILVEKYGGRVPDSLEELLKLPGVGRKTANIVLWVGFKKPALAVDTHVHRISNRLGWVKTRTPEETEEALKKLLPEDLWGPINGSMVEFGRRICKPQNPLCEECFLKNHCEFYRRRGKGEVRNRTER | not soluble
15 | MGSDKIHHHHHHMIEQQMPFRRILLTSDTFQILKEGQIISTFNKCGIFYCQRGSVEVSLEGCHYHIKPGDVYIYMASTLVHLLHKSEDAEGIMVEVDFYYILPIVNKVINVESQLFMRKNPCVSLSGEQCAHFEYLLNNLWDRINAEDCQKENVQYQHLKLELIKSMGQTICYEILNMYFTNQPLQPLQQGKKDVVFQNFMLSLFRFYRKERDVSFYARMQHITPRYFSAIIKEKTGDSALQWIVRMVITEAKQLLEESDLSIKEIADQLNFPTQSFFGKYFKQYVGVSPKEYRNNAATTRIKR | not soluble
16 | MGSDKIHHHHHHMIFIPPFEQGKLLRRYKRFLADVLLDDGTEITIHCPNTGSMRNCLFPGERVWFSTSDNPKRKYAHTWEQAASDEGHIIGINTGRANALAAEAIEAGVISELTGYDRLRREVKYGSENSRIDLLLESEDKPACYIEVKSCTLLEQGQGYFPDAVTTRGQKHLRELMEMVKQGHRAVLLFVVQHTGITTVAAARHIDPEYAELLTQAHQAGVEILAYSCELSPSAAKLIKSCPVKL | not soluble
17 | MGSDKIHHHHHHMIGDMNELLLKSVEVLPPLPDTVSKLRKYVSEANSNIETMKVAEIISSDPLMTAKLLQLANSPYYGFTREITTINQVITLLGVGNIINIVMADSIRDNFKIDVSPYGLNTQNFLKTCNEEATFIANWLNDEDKKLSHLLVPCAMLLRLGIVIFSNFLIQNHKDKDFLAFLNKNENLALAENEFLGVDHISFLGFLLHRWNFDDVLIESICFVRTPHAAREKVKKSAYALAITDHLFAPHDGSSPFNAKAAVALLKEAKTQGINFDLNNLLSKLPNKAKENLNKED | soluble
18 | MGSDKIHHHHHHMIGHVPVGSSAPVVVQSMTNTDTADAAATVRQVYELWRAGSEIVRITVNSPEAAAQVGAIRRQLDDLGCNVPLVGDFHFNGHRLLAQYPDCAEALAKYRINPGNVGKGSKRDEQFSAMIKAAIDYNKPVRIGVNWGSLDQAKMARMMDENSKRAAPLAADALMREMLIQSALENAAAAEELGLPSDRIIISCKVSAVQDLIKVYRDLGSRCDYPLHLGLTEAGMGSKGIVASTAALSVLLQDGIGDTIRVSLTPEPGESRTKEVVVAQEILQTMGIRSFTPLVTACPGCGRTTSTFFQELAQKIQHYLRDQMPVWRSQYPGVENMSVAVMGCVVNGPGESKLANIGISLPGTGEVPVAPVYVDGEKTVTLKGERIADDFKVIVEEYVRVNYAEGGRLRQQGTGTGLKTIPLKAI | not soluble
19 | MGSDKIHHHHHHMIGYGLPMPNQAHFSASFARPSTPAAKCMHHIRLGQQLIRNELVEATGLSQPTVTRAVTALMQAGLVRERPDLTLSSGPGRPNIPLELAPSPWIHAGVAIGTKSSYVALFDTKGRTLRDAMLEISAADLDPDTFIEHLIAGVNRLTTGLDLPLVGIGVATSGKVTNAGVVTASNLGWDGVDIAGRLNYQFSVPATVASAIPAIAASELQASPLPHPEQPTPITLTFYADDSVGAAYSNDLGVHVIGPLATTRGSGLDTLGMAAEDALSTQGFLSRVSDQGIFANSLGELVTIAKDNETAREFLNDRATLLAHTAAEAAETVKPSTLVLSGSAFSEDPQGRSVFASQLKKEYDADIELRLIPTHRENVRAAARAVALDRLLNEPLTLVP | not soluble
20 | MGSDKIHHHHHHMIHKLADVQSQNIGDNTKVWQFCVILAGAVIGRNCNICANSLIENDVVIGDNVTIKSGVQIWDGIHIQDDVFIGPNVTFTNDKQPRSKIYPDEYLKTIVKKGASIGANSTILPGILIGENAMVGAGAVITKNVPDNAIVIGNPGRITGYVEANTGVIMPSNNFELKLQMSKVKGVSLHKFHLVNDLRGNLSVGEFEKDIPFTPKRYFTVFGVPNKEVRGEHAHKECKQFLICVSGNCSVLVDDGENREEYVLDSIDKGIYLPPMTWGVQYKYSKDAVLLVFASHYYDSDDYIRDYSTFKQMRQN | not soluble
